Test results from paper PMC11148119.

Target: T1, Full-length rat TRPV2 with a C-terminal 1D4 tag, reconstituted into MSP2N2 nanodiscs (rat), Q9WUD2
T1 chain: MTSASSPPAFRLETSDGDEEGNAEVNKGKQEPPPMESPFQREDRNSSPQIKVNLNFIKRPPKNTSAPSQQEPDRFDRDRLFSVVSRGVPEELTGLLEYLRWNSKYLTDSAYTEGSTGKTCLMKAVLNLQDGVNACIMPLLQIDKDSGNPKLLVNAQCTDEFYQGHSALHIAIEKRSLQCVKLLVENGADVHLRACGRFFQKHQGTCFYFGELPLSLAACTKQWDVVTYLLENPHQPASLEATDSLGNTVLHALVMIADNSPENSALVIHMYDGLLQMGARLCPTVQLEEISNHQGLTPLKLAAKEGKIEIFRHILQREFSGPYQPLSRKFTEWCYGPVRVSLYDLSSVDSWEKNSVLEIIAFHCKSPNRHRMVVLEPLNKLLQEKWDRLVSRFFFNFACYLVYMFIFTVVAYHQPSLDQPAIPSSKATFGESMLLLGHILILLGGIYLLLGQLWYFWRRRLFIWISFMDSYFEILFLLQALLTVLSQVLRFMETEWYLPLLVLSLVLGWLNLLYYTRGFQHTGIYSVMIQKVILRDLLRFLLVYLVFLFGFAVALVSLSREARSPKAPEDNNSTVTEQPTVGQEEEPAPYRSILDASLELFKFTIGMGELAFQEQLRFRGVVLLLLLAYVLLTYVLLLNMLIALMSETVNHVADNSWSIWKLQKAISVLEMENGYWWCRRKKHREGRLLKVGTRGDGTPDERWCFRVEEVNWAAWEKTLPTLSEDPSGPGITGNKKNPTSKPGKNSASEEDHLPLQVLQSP
Assay: cryo-EM structure; rTRPV2 in MSP2N2/soy polar lipid nanodiscs; apo dataset at pH 8 (states Apo1, Apo2, Apo3) and dataset with 30 mM sodium acetate at final pH 5.0 (TRPV2_HOAc); grids prepared at 4 °C; maps refined with C4 symmetry
Conditions: remark: other sources report otherwise

stoichiometry N: 4
B1: Full-length rat TRPV2 with a C-terminal 1D4 tag, reconstituted into MSP2N2 nanodiscs, Q9WUD2 1-761 (natural protein)
chain: MTSASSPPAFRLETSDGDEEGNAEVNKGKQEPPPMESPFQREDRNSSPQIKVNLNFIKRPPKNTSAPSQQEPDRFDRDRLFSVVSRGVPEELTGLLEYLRWNSKYLTDSAYTEGSTGKTCLMKAVLNLQDGVNACIMPLLQIDKDSGNPKLLVNAQCTDEFYQGHSALHIAIEKRSLQCVKLLVENGADVHLRACGRFFQKHQGTCFYFGELPLSLAACTKQWDVVTYLLENPHQPASLEATDSLGNTVLHALVMIADNSPENSALVIHMYDGLLQMGARLCPTVQLEEISNHQGLTPLKLAAKEGKIEIFRHILQREFSGPYQPLSRKFTEWCYGPVRVSLYDLSSVDSWEKNSVLEIIAFHCKSPNRHRMVVLEPLNKLLQEKWDRLVSRFFFNFACYLVYMFIFTVVAYHQPSLDQPAIPSSKATFGESMLLLGHILILLGGIYLLLGQLWYFWRRRLFIWISFMDSYFEILFLLQALLTVLSQVLRFMETEWYLPLLVLSLVLGWLNLLYYTRGFQHTGIYSVMIQKVILRDLLRFLLVYLVFLFGFAVALVSLSREARSPKAPEDNNSTVTEQPTVGQEEEPAPYRSILDASLELFKFTIGMGELAFQEQLRFRGVVLLLLLAYVLLTYVLLLNMLIALMSETVNHVADNSWSIWKLQKAISVLEMENGYWWCRRKKHREGRLLKVGTRGDGTPDERWCFRVEEVNWAAWEKTLPTLSEDPSGPGITGNKKNPTSKPGKNSASEEDHLPLQVLQSP
